Target: T1, phosphorylated ArnB (ArnB~P), phosphorylated by the kinase ArnC (Sulfolobus acidocaldarius, UniProt Q4J9H3 2-380, phosphothreonine at T353, T363 and T375 (almost complete within the first 5 min with ArnC); phosphothreonine at T322 and T335 only after 15 min)
T1 construct: ArnB of Sulfolobus acidocaldarius, Saci_1211; also called tagged ArnB; source: E. coli BL21(DE3) Rosetta; phosphorylated by ArnC in the mixed lysate (ATP, MnCl2, 55 °C, 5-60 min); in lysate for the pull-downs; purified (Ni-NTA, SEC) for HDX-MS; not shown: His6, C-terminal, kept
T1 sequence: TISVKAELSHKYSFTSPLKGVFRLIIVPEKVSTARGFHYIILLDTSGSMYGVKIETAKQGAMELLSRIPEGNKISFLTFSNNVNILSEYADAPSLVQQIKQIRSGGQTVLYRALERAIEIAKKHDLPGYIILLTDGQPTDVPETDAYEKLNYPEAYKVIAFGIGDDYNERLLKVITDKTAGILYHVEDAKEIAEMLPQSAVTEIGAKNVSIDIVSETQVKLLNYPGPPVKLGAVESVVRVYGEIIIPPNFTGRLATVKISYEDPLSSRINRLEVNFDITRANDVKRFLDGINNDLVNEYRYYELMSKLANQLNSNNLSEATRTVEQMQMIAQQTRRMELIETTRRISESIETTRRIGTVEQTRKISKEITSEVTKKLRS
Test: HDX-MS; ArnA, ArnB, ArnB~P and ArnA/ArnB~P (isolated by Ni-NTA via the His6 tag of ArnB, then SEC); 50 μM stocks in 20 mM Tris-Cl pH 8.0, 150 mM NaCl; 25 °C; 10-10,000 s
Settings: both partners purified

binding result: binds
B1: ArnA (Saci_1210) (natural protein, Sulfolobus acidocaldarius)
chain: TWKCNLCGYENDDDALFCIKCGAQKSSEAQQLPQQQPSEPQAQGVVTQQQVVTNPPVQAQVATPQQPAQQPVLPQPEPAQPQPVSSTPAPQQASQPTNRYYIYFIQTPNENLVNKKVLLNFDLFPSVSMGRSPENIVIVPDSEVSRKHAVIYLDNSELYIEDLNSTNGTYVYDGKQFTPIKGKQKIEPNSIIKLGNQTIVRILKE
notes: ArnA of Sulfolobus acidocaldarius, Saci_1210; N-terminal zinc-finger (ZnF) domain, disordered linker (S28-N99) and C-terminal FHA domain; In the crystal (PDB 8S05) only the ZnF domain (P16-K42) is defined by density; also called StrepII-tagged ArnA; source: E. coli BL21(DE3) Rosetta; purified (heat treatment, Ni-NTA, SEC) for crystals, SAXS and HDX-MS; co-expressed with His6-ArnB, in lysate, for …
